Patent publication US7494767B2, “Assay for TSG101 as inhibitors of HIV production” (priority 2001, dated 2009)

B1: pIND-h-Tsg101-FLAG: FLAG-tagged wild-type human Tsg101 overexpressed from an ecdysone-inducible plasmid (protein)
chain: MAVSESQLKKMVSKYKYRDLTVRETVNVITLYKDLKPVLDSYVFNDGSSRELMNLTGTIPVPYRGNTYNIPICLWLLDTYPYNPPICFVKPTSSMTIKTGKHVDANGKIYLPYLHEWKHPQSDLLGLIQVMIVVFGDEPPVFSRPISASYPPYQATGPPNTSYMPGMPGGISPYPSGYPPNPSGYPGCPYPPGGPYPATTSSQYPSQPPVTTVGPSRDGTISEDTIRASLISAVSDKLRWRMKEEMDRAQAELNALKRTEEDLKKGHQKLEEMVTRLDQEVAEVDKNIELLKKKDEELSSALEKMENQSENNDIDEVIIPTAPLYKQILNLYAEENAIEDTIFYLGEALRRGVIDLDVFLKHVRLLSRKQFQLRALMQKARKTAGLSDLY
modifications: left off: small tags and cut ends
notes: FLAG-tagged wild-type human Tsg101 overexpressed from an ecdysone-inducible plasmid
B2: SD5-59 (protein)
chain: MAVSESQLKKMVSKYKYRDLTVRETVNVITLYKDLKPVLDSYVFNDGSSRELMNLTGTIPVPYRGNTYNIPICLWLLDTYPYNPPICFVKPTSSMTIKTGKHVDANGKIYLPYLHEWKHPQSDLLGLIQVMIVVFGDEPPVFSRPISASYPPYQATGPPNTSYMPGMPGGISPYPSGYPPNPSGYPGCPYPPGGPYPATTSSQYPSQPPVTTVGPSRDGTISEDTIRASLISAVSDKLRWRMKEEMDRAQAELNALKRTEEDLKKGHQKLEEMVTRLDQEVAEVDKNIELLKKKDEELSSALEKMENQSENNDIDEVIIPTAPLYKQILNLYAEENAIEDTIFYLGEGGVIDLDVFLKHVRLLSRKQFQLRALMQKARKTAGLSDLY
modifications: left off: small tags and cut ends
B3: p1-p6: p1-p6 region of HIV-1 Pr55Gag fused to GAL4 DNA-binding domain (protein)
chain: MKLLSSIEQACDICRLKKLKCSKEKPKCAKCLKNNWECRYSPKTKRSPLTRAHLTEVESRLERLEQLFLLIFPREDLDMILKMDSLQDIKALLTGLFVQDNVNKDAVTDRLASVETDMPLTLRQHRISATSSSEESSNKGQRQLTVSGKIWPSYKGRPGNFLQSRPEPTAPPFLQSRPEPTAPPEESFRSGVETTTPPQKQEPIDKELYPLTSLRSLFGNDPSSQ

Columns and labels:
[1] = system: HIV-1 particles; experiment: Release of HIV-1 virus-like particles from transfected COS-1 cells (Western blot of particles, anti-CA); format: cell-based; conditions: for amount of mature CA in released virus, of the control (0 μM pa) level: COS-1 cells with rev, pol and wild-type gag
[2] = system: viral protein (Gag); experiment: Intracellular steady-state level of viral proteins in COS-1 cells (S1 and P1 fractions, Western blot, anti-CA); format: cell-based, HIV-1; conditions: for Gag Δp6 in S1 and P1 fractions: gagΔp6, same conditions; for viral protein in P1 fraction / viral protein in S1 fraction: wild-type gag, pol, rev, conditions of greatest inhibition
[3] = biological target: T1, Tsg101 (Homo sapiens, UniProt Q99816); conditions: N- or C-terminally deleted Pr55^Gag fused to GAL4 DNA-binding domain; FIG. 1A
T1 construct: expressed in transfected cells; host or cells: Saccharomyces cerevisiae Y153
Method: 2-hybrid assay. […] Vectors pGBT9 and pGAD424 encoding PR55^Gag or Tsg101 sequences as GAL4 activation and binding domain fusion proteins were transformed into Saccharomyces cerevisiae Y153 using procedures previously described (Bartel, P. L. & Fields, S., 1995, Methods Enzymol. 254,241-263). Briefly, interactions were detected using a selection for Trp and Leu prototrophy followed by quantitative assay for LacZ activation. […] Mapping of the interacting domain was performed using vectors encoding the DNA-binding or activation domain of the yeast GAL4 transcriptional activator protein fused to truncations, deletions or point mutations of the proteins. […] Expression of all GAL4 fusions was checked by analysis of yeast cell extracts by SDS-gel electrophoresis and Western blotting with an antibody directed against the GAL4 binding domain (Upstate Biochemical) and GAL4 transactivation domain (Santa Cruz).

[4] = increasing expression, pa 1 and 5 μM, wild-type gag

Molecule	amount of mature CA in released virus, of the control (0 μM pa) level ([1]; 1 μM pa)	amount of mature CA in released virus, of the control (0 μM pa) level ([1]; 5 μM pa)	release of immature particles containing GagΔp6 ([1]; Tsg101 overexpression, pa 0, 1, 5 μM, gagΔp6)	Gag Δp6 in S1 and P1 fractions [2]	viral protein in P1 fraction [2]	viral protein in S1 fraction [2]	Gag processing in released particles [1, 4]	release of virus particles [1, 4]	LacZ reporter gene activation signal [3]
B1	~60%	~30%	not significantly affected	detected in both S1 and P1 fractions	no detectable viral protein	no detectable viral protein	–	–	–
B2	–	–	–	accumulated at higher levels in both fractions	no protein was found	detectable levels of viral protein	accumulation of particle-associated uncleaved Gag precursor	permitted release of virus particles	–
B3	–	–	–	–	–	–	–	–	retained
